Reference: patent US20200277396A1

Assays:
[1] = biological target: human CD83, cell surface, on lymphoma cells (human) (UniProt Q01151); assay: flow cytometry, HB15a-FITC on HDLM2 cells, gate placed right of the grey isotype control histogram
[2] = biological target: human CD83, cell surface, on lymphoma cells (human) (UniProt Q01151); assay: flow cytometry, HB15a-FITC on L428 cells, gate placed right of the grey isotype control histogram
[3] = biological target: human CD83, cell surface, on lymphoma cells (human) (UniProt Q01151); assay: flow cytometry, HB15a-FITC on KM-H2 cells, gate placed right of the grey isotype control histogram
[4] = biological target: human CD83, cell surface, on lymphoma cells (human) (UniProt Q01151); assay: flow cytometry, HB15e-FITC on L428 cells, gate placed right of the grey isotype control histogram
[5] = biological target: human CD83, cell surface, on lymphoma cells (human) (UniProt Q01151); assay: flow cytometry, HB15e-FITC on HDLM2 cells, gate placed right of the grey isotype control histogram
[6] = biological target: human CD83, cell surface, on lymphoma cells (human) (UniProt Q01151); assay: flow cytometry, HB15e-FITC on KM-H2 cells, gate placed right of the grey isotype control histogram

UniProt Q01151, sequence (Q01151 20-205): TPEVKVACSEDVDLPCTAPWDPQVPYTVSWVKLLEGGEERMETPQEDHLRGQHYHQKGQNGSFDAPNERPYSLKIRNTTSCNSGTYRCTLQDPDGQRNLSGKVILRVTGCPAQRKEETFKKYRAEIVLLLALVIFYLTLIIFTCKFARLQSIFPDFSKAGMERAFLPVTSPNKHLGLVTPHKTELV

Row | positive gate (percent of cells in the gate) [1] | positive gate (percent of cells in the gate) [2] | positive gate (percent of cells in the gate) [3] | positive gate (percent of cells in the gate) [4] | positive gate (percent of cells in the gate) [5] | positive gate (percent of cells in the gate) [6] | Substance
1 | 14.7 | 27.2 | 99.5 | – | – | – | HB15a, mouse anti-human CD83 monoclonal antibody (Beckman and Coulter)
2 | – | – | – | 60 | 32.5 | 99 | HB15e, mouse anti-human CD83 monoclonal antibody (BD Biosciences)
